{"source": "paper doi:10.1101/2021.01.18.427223", "molecular_target": "VPS35 D620N (VPS35 D620N knock-in mouse, VKI) (mouse (endogenous in brain)), Q9EQH3", "test": "co-IP", "settings": "remark: other sources report otherwise"}
{"binder": "WASH complex member FAM21, Q6PGL7 1-1334 (natural protein) MNRTSPDSERPPASEPVWERPWSVEEIRRSSQNWSLAADAGLLQFLQEFSQQTISRTHEIKKQVDGLIQETKATHCRLHNVFNDFLMLSNTQFIENRVYDEEVEEQVLKAEAEKAEQEKTREQKEIDLIPKVQEAVNYGLQVLDSAFEQLDIKAGNSDSEEDDANERVDLILEPKDLYIDRPLPYLIGSKLFMEQEDVGLGELSSEEGSVGSDRGSIVDSEDEKEEEESDEDFASHSDNDQNQHTTQISDEEEDDDGDLFADSEKEGDDIEDIEESAKSKRPTSFADELAARIKGDISNQRKEGQTDGKPQKTVKEKKERRTPADDEEDILFPPPTLTDEDFSPFGSRGGLFSNGQGLFDDEDESDLFKEAPRARPAQAPVSEELPPSPKPGKKIPAGAVSVLLGHPDVSGSTSAPSLKELQKHGQPTPGKSSHLPTPAGLFDDDDNDNDEDDNNFFMPSSSKPSKTDKVKSTAIIFDDDEGDLFKEKAEALPAASVSQTHESKTRADKTIALPSSKNLKLVSETKTQKGLFSDEEDSEDLFSSQSSSKPKSASLPSSQPPTSVSLFGDEDEEDSLFGSAAAKKQTSSLQPQSQEKAKPSEQPSKKTSALLFSSDEEDQWNIADSHTKLASDNKSKGELWDSGATQGQEAKAVKKTNLFEDDDDDEVDLFAIAKDSQKKTQRTSLLFEDDAESGSSLFGLPPTSVPSATTKKESVPKVPLLFSDEEDSEVPSGVKPEDLKVDNARVSPEVGSADVASIAQKEGLLPASDQEAGGPSDIFSSSSPLDKGAKGRTRTVLSLFDEDEDKVEDESSTCAPQDGREKGLKTDSRPKSTGVFQDEELLFSHKLQKDNDPDVDLFAGTKKIRSSVPSGGSLFGDDEDDDLFSSAKTQPVVPEKKGTLKKDHPVSLKNQDPLDSTQGSKEKSTWKTEPAQDSSGLTPFKSREPSSRIGKIQANLAINPAALLPTVALQIPGTKPVSSELAFPSSEPGRSHILESVPTLPGSVEAGVSFDLPAQADTLHSANKSRVKVRGKRRPQTRAARRLAAQESSEAEDVTVDRGPVAQLSSSPVLPNGHQPLLQPRMASGQTSSETATAPPWEGGPVLSAADRSFFVKSRPQTGNEADLFDSGDIFPKSRGSQSVEGAGVMAGEPPSHSSGGRKEKSLAFPDLSEGSSTEDLFQSVKPRAAKNRNPFPLLEDEEDLFADPRGKKNERKPDSHQDSVSKTHDIFEDDIFATEAIKPFPKKREKGRTLEPNLFDDNIDIFADLTVKPKEKSKKKVAAKSMFDDDTDDIFSSGLQAKASKPKSQSAEAASEQRSEHKVASIFDDPLNAFGSQ", "values": [{"measurement": "percent reduction of co-IP against wild type", "value": "25 to 30", "unit": "%"}]}
